Measurements reported in patent publication US20250296984A1, “THERAPEUTIC AND DIAGNOSTIC AGENTS AND USES THEREOF” (priority 2022, published 2025).

What was measured:
[1] = tested on: breast cancer tissues; test: IHC in a breast cancer cohort (primary tumors, metastases, NAT); parameters: species or system human
Description: FIG. 13. The HCMV US28 expression was studied by immunohistochemistry (IHC) and in situ hybridisation (ISH) in a breast cancer cohort. […] Most tumor cells in this sample stained positively for the US28-13-5G6-1D3 rAb (brown colour). […] C. […] The arrows point out some positive HCMV DNA signals in the figure. […] A colour version of FIG. 13 is provided on the page after the non-colour version.
FIG. 14. […] B. Most cancer cells in the same sample were negative for the MAB810R staining. C. […] The arrows point out such positive HCMV DNA signals. The HCMV DNA was not seen in the cytoplasm of the tumor cells. D. The negative control anti-IgG Ab staining for the same sample was negative. A colour version of FIG. 14 is also provided.
FIG. 15. The US28 staining and HCMV ISH were negative in many normal adjacent tumor (NAT) breast tissues as exemplified in the figure with the sample BR1008b_J6. […] C. […] D. The IgG staining was also negative. […] Thus, the samples are exposed to exactly the same staining conditions and antibody/DNA probe concentrations. […] A colour version of FIG. 15 is also provided.
FIG. 16. A. The IHC staining of the primary breast cancer samples with US28-13-5G6-1D3 rAb were specific and positive in ˜73% of the 41 studied primary breast tumor samples. […]

[2] = tested on: human heart muscle tissue; test: Immunohistochemistry (IHC) on human cardiac tissues; settings: FIG. 19 B
Experimental: Cytomegalovirus (CMV) control slides containing CMV positive lung tissue and CMV negative myometrium (product number #3240A) were obtained from Newcomer Supply Inc., Middleton, WI 53562-2579, USA. Tissue micro-arrays (TMAs) were obtained from US Biomax Inc., Derwood, MD 20855, USA, and included tumor tissues #BR1008b, #BS17016c, #BCN721b and normal tissues #FDA662a and heart tissues #HEN241a.
The paraffin sections were sequentially immersed into a. 100% xylene three times (5 min each); b. 100% ethanol twice (2 min each); c. 95% ethanol twice (2 min each). The slides were rinsed twice in water for 5 min to remove ethanol. […], the slides were immersed in 3% H2O2 for 5 minutes and washed thereafter twice (2×) with distilled water. The slides were then immersed in the working citrate buffer (pH 6.0) and covered with a lid. The buffer was heated in the microwave until it had boiled, and then kept in the steamer for 15 min.
The sections were cooled at room temperature for 30 min and washed with PBS. 5% BSA blocking solution was then added to the HIER treated samples and they were incubated at 37° C. for 30 min. […] Digitized pictures were taken by Olympus VS120 scanner and analyzed by using OlyVia 3.2 software (Olympus Corporation, 20101 Tokyo, Japan) by senior Pathologist. […]

[3] = tested on: US28 negative CHO control cells; test: Flow cytometry off-target binding to US28 negative control CHO cells; parameters: species or system Chinese Hamster; settings: 1:10 dilution (w/v), after removing binding to blank and secondary Ab controls
Description: FIG. 4. The positive surface binding of the clone US28-13-5G6-1D3 on CHO-US28-A1 cells was compared with the US28 negative CHO control cells. The clone US28-13-5G6-1D3 Ab bound 15-fold more to the surface of the US28 positive CHO-US28-A1 cells than to the US28 negative CHO cells in 1:50 (w/v).
FIG. 7. Surface binding of 13-5G6-1D3 rAb on CHO-US28-A1 cells, and on respective control CHO cells were validated by using FACS analysis. The bars showing results for CHO cells are colored with dark grey whereas the bars showing results for CHO-US28-A1 cells are colored with pale grey color. […] The surface binding of the 13-5G6-1D3 rAb to CHO cells was only measured in 1:10 dilution (w/v) and was 0.77% after removing the binding to blank and anti-mouse IgG-Alexa 488 secondary Ab controls.
FIG. 22. Percentage off-target binding of various ECD3-binding molecules of the invention (A) or various SEQ ID NO: 177-binding molecules of the invention (B), in comparison with VUN100, as assessed by binding to control CHO cells.
In a further embodiment, it is preferred that a binding molecule of the present invention binds preferentially to US28-expressing cells (such as CHO cells engineered to express US28) compared to its binding of US28-negative cells (such as wildtype CHO cells), for example, at a 1:50 (w/v) dilution, for example as determined by flow cytometry assay. […]

B1: US28-13-5G6-1D3: monoclonal antibody against ECD3 of HCMV US28; VH SEQ ID NO: 12, VL SEQ ID NO: 18; rAb is the recombinant product (antibody, V domains shown)
VH: EVKLVESGGGLVQPGGSLRLACATSGFTFTDYYMSWVRQPPGKALEWLGFIRSKANGYTTEYSASVKGRFTISRDNSQSILYLQMNTLRSEDSATYYCARDERRTAWLAYWGQGTLVTVSA
VL: DVLMTQTPLSLPVSLGDQASISCRSSQSIVHSNGNTYLDWYLQKPGQSPKLLIYKVSNRFSGVPDRFSGSGSGTDFTLKISRVEAEDLGVYYCFQGSHVPTWTFGGGTKLEIK
modifications: Mature form of VH sequence of 1D3, without the leader sequence; Mature form of VL sequence of 1D3, without the leader sequence
notes: monoclonal antibody against ECD3 of HCMV US28; rAb is the recombinant product
[1]; all samples
  staining of TNBC (n=7) and HER2 positive (n=11) metastases: positive
[1]; hormone receptor positive cancers, of 30 metastases
  number of negative metastasis samples: 2

B2: 13-5G6-1D3: mouse monoclonal IgG1 kappa antibody against US28 ECD3; VH SEQ ID NO: 12, VL SEQ ID NO: 18 (antibody, V domains shown)
VH: B1 VH
VL: B1 VL
modifications: Mature form of VH sequence of 1D3, without the leader sequence; Mature form of VL sequence of 1D3, without the leader sequence
[2]
  off-target binding in IHC: did not show any general off-target binding

B3: 13-5G6-1D3 rAb: recombinant antibody product of US28-13-5G6-1D3 produced in HEK293-F cells (antibody)
heavy: EVKLVESGGGLVQPGGSLRLACATSGFTFTDYYMSWVRQPPGKALEWLGFIRSKANGYTTEYSASVKGRFTISRDNSQSILYLQMNTLRSEDSATYYCARDERRTAWLAYWGQGTLVTVSAAKTTPPSVYPLAPGSAAQTNSMVTLGCLVKGYFPEPVTVTWNSGSLSSGVHTFPAVLQSDLYTLSSSVTVPSSTWPSETVTCNVAHPASSTKVDKKIVPRDCGCKPCICTVPEVSSVFIFPPKPKDVLTITLTPKVTCVVVDISKDDPEVQFSWFVDDVEVHTAQTQPREEQFNSTFRSVSELPIMHQDWLNGKEFKCRVNSAAFPAPIEKTISKTKGRPKAPQVYTIPPPKEQMAKDKVSLTCMITDFFPEDITVEWQWNGQPAENYKNTQPIMDTDGSYFIYSKLNVQKSNWEAGNTFTCSVLHEGLHNHHTEKSLSHSPGK
light: DVLMTQTPLSLPVSLGDQASISCRSSQSIVHSNGNTYLDWYLQKPGQSPKLLIYKVSNRFSGVPDRFSGSGSGTDFTLKISRVEAEDLGVYYCFQGSHVPTWTFGGGTKLEIKRADAAPTVSIFPPSSEQLTSGGASVVCFLNNFYPKDINVKWKIDGSERQNGVLNSWTDQDSKDSTYSMSSTLTLTKDEYERHNSYTCEATHKTSTSPIVKSFNRNEC
[3]
  surface binding to CHO cells, percent of cells: 0.77%
